In US7252824B2, “Anti-neovasculature preparations for cancer” (Mannkind Corporation, priority 2001, dated 2007):

Experiments:
[1] = biological target: HLA-A2.1 (Homo sapiens, UniProt P04439, D140Y/D185E/D98H/E176V/E277Q/G131W/G231S/I119V/I121R/I166T/I218V/L300P/L318F/N151K/N90K/P208A/P217A/Q86G/Q94H/R138H/R169H/T345S); assay: HLA-A*0201 binding assay (stabilization of surface HLA-A2.1 on T2 cells, flow cytometry); conditions: for binding to HLA-A2.1: T2 cells, peptide 6.25-800 μg/ml, compared with control peptides
[2] = system: HLA-A1+ CD8+ T cells; assay: gamma-IFN-based ELISPOT assay; type: cell-based, human; conditions: IFN production blocked by anti-HLA-A1 monoclonal antibody
Method: The wells of a nitrocellulose-backed microtiter plate were coated with capture antibody by incubating overnight at 4° C. using 50 μl/well of 4 μg/ml murine anti-human −IFN monoclonal antibody in coating buffer (35 mM sodium bicarbonate, 15 mM sodium carbonate, pH 9.5). Unbound antibody was removed by washing 4 times 5 min. with PBS. Unbound sites on the membrane then were blocked by adding 200 μl/well of RPMI medium with 10% serum and incubating 1 hr. at room temperature. Antigen stimulated CD8^+ T cells, in 1:3 serial dilutions, were seeded into the wells of the microtiter plate using 100 μl/well, starting at 2×10^5 cells/well. […] Following this incubation the plates were washed with 6 times 200 μl/well of PBS containing 0.05% Tween-20 (PBS-Tween). Detection antibody, 50 μl/well of 2 μg/ml biotinylated murine anti-human −IFN monoclonal antibody in PBS+10% fetal calf serum, was added and the plate incubated at room temperature for 2 hrs. Unbound detection antibody was removed by washing with 4 times 200 μl of PBS-Tween. 100 μl of avidin-conjugated horseradish peroxidase (Pharmingen, San Diego, Calif.) was added to each well and incubated at room temperature for 1 hr. Unbound enzyme was removed by washing with 6 times 200 μl of PBS-Tween. […] The plate was air dried and the spots counted using a stereomicroscope.
No reactivity is detected from cultures without peptide (data not shown).

[3] = system: peptide pulsed T2 cells; assay: Epitope specific lysis by CTL from peptide-immunized HHD-A2 mice; type: in vivo; conditions: HHD-A2 mice immunized with peptide in complete Freund's adjuvants, spleen cells re-stimulated in vitro; HLA-A2+ T2 targets
Excerpt: HHD-A2 mice were immunized with ED-B29-38 (SEQ ID NO. 103) in complete Freund's adjuvants and spleen cells were harvested and re-stimulated in vitro using standard methodology.

[4] = biological target: T1, HLA-A2.1 (HLA-A*0201) on T2 cells (human); assay: T2 cell HLA-A2.1 stabilisation, flow cytometry with FITC anti-HLA-A2
T1 construct: MHC class I molecule on T2 cells; also called HLA-A2+ T2 cells

GLPSIPVHPI (Homo sapien) [SEQ ID NO 21]
binding to HLA-A2.1 [1]: significant binding at even lower concentrations than the positive control peptides

GMPEGDLVYV (Homo sapien) [SEQ ID NO 6]
binding to HLA-A2.1 [1]: significant binding at even lower concentrations than the positive control peptides

MMNDQLMFL [SEQ ID NO 39]
binding to HLA-A2.1 [1]: significant binding at even lower concentrations than the positive control peptide

RMMNDQLMFL (Homo sapien) [SEQ ID NO 40]
binding to HLA-A2.1 [1]: significant binding at even lower concentrations than the positive control peptide
binding activity / affinity by comparison to the controls ([1]; not run in parallel): approaches the Melan A peptide in affinity

RVDCTPLMY [SEQ ID NO 35]
HLA restriction of the response [2]: HLA-A1-restricted response

TIIGYRITVV (Homo sapien) [SEQ ID NO 103]
epitope specific lysis by CTL [3]: able to specifically lyse peptide pulsed T2 cells

TLRVDCTPL (Homo sapien) [SEQ ID NO 32]
binding to HLA-A2.1 [1]: binds nearly as well

B1: PSMA663-671 (peptide)
peptide: MMNDQLMFL
binding result [4]: binds
